Our source for the koff, kon and Kd values is patent US7067473.

One may read the koff as a measure of how fast the partners let go of each other. What is called kon is the second-order rate constant of association. The Kd is a measure of binding affinity in units of concentration.

The target of experiment [1] is recombinant enovin (mature Enovin with NH2-terminal 6x His-tag, expressed from hEVNmat/pRSETB in E. coli BL21(DE3), refolded) (human). Put plainly: SPR (BIAcore 3000, 25 °C), enovin immobilised, soluble GFRα3-Fc as analyte, three concentrations.
Experiment [2] has the same target. Put plainly: SPR (BIAcore 3000, 25 °C), enovin immobilised, soluble GFRα3-Fc as analyte; KD calculated as kd/ka.

B1: soluble GFRα-3 IgG-Fc fusion protein (GFRα-3 amino acids 28 to 371 fused to human IgG1-Fc) (Fc fusion, UniProt O60609 28-371, looked up, not shown: a dimerising Fc or GST)
chain: LAAGDPLPTESRLMNSCLQARRKCQADPTCSAAYHHLDSCTSSISTPLPSEEPSVPADCLEAAQQLRNSSLIGCMCHRRMKNQVACLDIYWTVHRARSLGNYELDVSPYEDTVTSKPWKMNLSKLNMLKPDSDLCLKFAMLCTLNDKCDRLRKAYGEACSGPHCQRHVCLRQLLTFFEKAAEPHAQGLLLCPCAPNDRGCGERRRNTIAPNCALPPVAPNCLELRRLCFSDPLCRSRLVDFQTHCHPMDILGTCATEQSRCLRAYLGLIGTAMTPNFVSNVNTSVALSCTCRGSGNLQEECEMLEGFFSHNPCLTEAIAAKMRFHSQLFSQDWPHPTFAVMAHQ
As for B1, in experiment [1], the koff is 0.000508 s⁻¹ and the on-rate (kon) is 165000 M⁻¹ s⁻¹. Also, the dissociation constant (Kd) in experiment [2] was 3.1 nM.
